Laboratory results: paper PMC7541222, “Novel single-domain antibodies against the EGFR domain III epitope exhibit the anti-tumor effect” (Journal of Translational Medicine, 2020)

B1: anti-EGFR single-domain antibody aEG6B2 (purified) (VHH)
VHH: QVQLLESGGGLVQPGGSLRLSCAASGFNVNPKYMTWVRQAPGKGLEWVSSIRSPGGSTYYADSVKGRFTISRDNSKNTLYLQMNSLRAEDTAVYYCASVSRDEKYMRFWGQGTLVTVSS
notes: fully human VH domain on the V3-23/D47 framework with diversified CDR1-3; Fully human VH-only single-domain antibody (about 15 kDa), selected from the Source BioScience human domain antibody library; subcloned NcoI/NotI into pET22b(+); also called anti-EGFR sdAb; source: E. coli BL21 (DE3), pET22b(+), purified (Ni-NTA)
B2: aEG6B2 displayed on phage (phage clone) (VHH)
VHH: QVQLLESGGGLVQPGGSLRLSCAASGFNVNPKYMTWVRQAPGKGLEWVSSIRSPGGSTYYADSVKGRFTISRDNSKNTLYLQMNSLRAEDTAVYYCASVSRDEKYMRFWGQGTLVTVSS
notes: detected by anti-M13-HRP; source: E. coli TG1, phagemid pR2, rescued with M13 helper phage, phage clone
B3: anti-EGFR single-domain antibody aEG4D9 (purified) (VHH)
VHH: QVQLLESGGGLVQPGGSLRLSCAASGDMLSPDNMTWVRQAPGKGLEWVSTIHKTDGSTYYADSVKGRFTISRDNSKNTLYLQMNSLRAEDTAVYYCAGLRSRGLSSKYLEYWGQGTLVTVSS
notes: as for B1
B4: aEG4D9 displayed on phage (phage clone) (VHH)
VHH: QVQLLESGGGLVQPGGSLRLSCAASGDMLSPDNMTWVRQAPGKGLEWVSTIHKTDGSTYYADSVKGRFTISRDNSKNTLYLQMNSLRAEDTAVYYCAGLRSRGLSSKYLEYWGQGTLVTVSS
notes: as for B2
B5: anti-EGFR single-domain antibody aEG1B4 (purified) (VHH)
VHH: QVQLLESGGGLVQPGGSLRLSCAASGVNVSNEVMSWVRQAPGKGLEWVSTIANHSGSTYYADSVKGRFTISRDNSKNTLYLQMNSLRAEDTAVYYCATLYSGATKQLEYWGQGTLVTVSS
notes: as for B1
B6: aEG1B4 displayed on phage (phage clone) (VHH)
VHH: QVQLLESGGGLVQPGGSLRLSCAASGVNVSNEVMSWVRQAPGKGLEWVSTIANHSGSTYYADSVKGRFTISRDNSKNTLYLQMNSLRAEDTAVYYCATLYSGATKQLEYWGQGTLVTVSS
notes: as for B2
B7: anti-EGFR single-domain antibody aEG2E12 (purified) (VHH)
VHH: QVQLLESGGGLVQPGGSLRLSCAASGYSSNNEFMAWVRQAPGKGLEWVSAISTRNGSTYYADSVKGRFTISRDNSKNTLYLQMNSLRAEDTAVYYCAGVSYRRPQQLKYWGQGTLVTVSS
notes: as for B1
B8: aEG2E12 displayed on phage (phage clone) (VHH)
VHH: QVQLLESGGGLVQPGGSLRLSCAASGYSSNNEFMAWVRQAPGKGLEWVSAISTRNGSTYYADSVKGRFTISRDNSKNTLYLQMNSLRAEDTAVYYCAGVSYRRPQQLKYWGQGTLVTVSS
notes: as for B2
B9: anti-EGFR single-domain antibody aEG2C7 (purified) (VHH)
VHH: QVQLLESGGGLVQPGGSLRLSCAASGFTFNNEIMAWVRQAPGKGLEWVSSIAANNGSTYYADSVKGRFTISRDNSKNTLYLQMNSLRAEDTAVYYCARYAAEPHTYSMGNKSLRYWGQGTLVTVSS
notes: as for B1
B10: aEG2C7 displayed on phage (phage clone) (VHH)
VHH: QVQLLESGGGLVQPGGSLRLSCAASGFTFNNEIMAWVRQAPGKGLEWVSSIAANNGSTYYADSVKGRFTISRDNSKNTLYLQMNSLRAEDTAVYYCARYAAEPHTYSMGNKSLRYWGQGTLVTVSS
notes: as for B2

Tests used:
[1] = target: T1, EGFR on human cancer cells A549, MCF-7 and DU145 (Homo sapiens, UniProt P00533); test: flow cytometry on cells; live cells (A549, MCF-7, DU145) in ice-cold PBS with BSA incubated with purified sdAbs; detected with protein A-FITC; conditions: one partner purified
T1 construct: Epidermal growth factor receptor (EGFR, HER1, ERBB1), endogenous on the surface of human cancer cell lines; also called HER1; ERBB1; source: endogenous, on live A549, MCF-7 and DU145 cells

EndoF1 [2] = target: T2, EndoF1 (Elizabethkingia meningoseptica (assumed), UniProt P36911); test: ELISA; wells of 96-well plates coated with EGFR protein fragment or unrelated antigens; purified sdAbs added; protein A-HRP, TMB, absorbance at 450 nm; conditions: both partners purified
T2 construct: EndoF1, unrelated antigen used as negative control

BMP2 [3] = target: T3, BMP2 (Homo sapiens (assumed), UniProt P12643); test: as above; conditions: both partners purified
T3 construct: BMP2, unrelated antigen used as negative control

FGF21 [4] = target: T4, FGF21 (Homo sapiens (assumed), UniProt Q9NSA1); test: as above; conditions: both partners purified
T4 construct: FGF21, unrelated antigen used as negative control

[5] = target: T5, EGFR complete extracellular domain protein (Homo sapiens (assumed), UniProt P00533); test: far-Western, overlay or dot blot; Western blotting: 0.5 ug EGFR complete extracellular domain separated by SDS-PAGE, transferred to PVDF; blot incubated with the sdAbs, then protein A-HRP, chemiluminescence; conditions: both partners purified
T5 construct: Epidermal growth factor receptor (EGFR, HER1, ERBB1), complete extracellular domain, bought; also called EGFR complete extracellular fragment; EGFR-ECD; source: bought: Shanghai Bootech BioSci. and Technol

EndoF1 [6] = target: T2, EndoF1; test: ELISA; monoclonal phage ELISA: wells of 96-well plates coated with EGFR protein fragment or unrelated antigens, blocked with 2% BSA; phage clones added; anti-M13-HRP, TMB, absorbance at 450 nm; conditions: one partner purified
BMP2 [7] = target: T3, BMP2; test: as above; conditions: one partner purified
FGF21 [8] = target: T4, FGF21; test: as above; conditions: one partner purified

T3 sequence (P12643 24-396): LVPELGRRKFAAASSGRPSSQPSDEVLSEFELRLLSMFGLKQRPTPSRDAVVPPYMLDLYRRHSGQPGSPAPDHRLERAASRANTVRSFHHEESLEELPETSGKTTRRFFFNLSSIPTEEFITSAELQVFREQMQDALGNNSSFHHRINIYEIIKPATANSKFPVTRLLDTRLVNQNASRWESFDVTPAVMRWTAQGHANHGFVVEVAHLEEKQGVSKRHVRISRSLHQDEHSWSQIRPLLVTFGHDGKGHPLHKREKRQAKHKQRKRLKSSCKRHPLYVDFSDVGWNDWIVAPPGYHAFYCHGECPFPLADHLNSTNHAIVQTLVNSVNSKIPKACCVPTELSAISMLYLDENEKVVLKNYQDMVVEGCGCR
T2 sequence (P36911 51-339): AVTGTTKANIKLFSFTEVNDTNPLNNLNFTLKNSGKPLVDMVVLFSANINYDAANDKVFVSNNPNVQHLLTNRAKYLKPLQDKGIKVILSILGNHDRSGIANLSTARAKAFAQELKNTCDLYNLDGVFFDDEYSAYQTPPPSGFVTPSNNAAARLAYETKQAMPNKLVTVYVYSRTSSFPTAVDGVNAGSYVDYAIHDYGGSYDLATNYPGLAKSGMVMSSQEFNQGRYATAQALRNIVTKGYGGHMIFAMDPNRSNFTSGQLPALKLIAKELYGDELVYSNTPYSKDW
T4 sequence (Q9NSA1 29-209): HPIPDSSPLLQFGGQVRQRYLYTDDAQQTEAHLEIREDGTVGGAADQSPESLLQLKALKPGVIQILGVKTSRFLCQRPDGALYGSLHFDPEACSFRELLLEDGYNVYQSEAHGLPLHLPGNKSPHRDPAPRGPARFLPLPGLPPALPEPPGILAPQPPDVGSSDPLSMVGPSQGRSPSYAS

Row | Binder | binding result [1] | binding result (EndoF1 [2]) | binding result (BMP2 [3]) | binding result (FGF21 [4]) | binding result [5] | binding result (EndoF1 [6]) | binding result (BMP2 [7]) | binding result (FGF21 [8])
1 | B1 | binds | no binding | no binding | no binding | binds |  |  | 
2 | B2 |  |  |  |  |  | no binding | no binding | no binding
3 | B3 | binds | no binding | no binding | no binding | binds |  |  | 
4 | B4 |  |  |  |  |  | no binding | no binding | no binding
5 | B5 | binds | no binding | no binding | no binding | binds |  |  | 
6 | B6 |  |  |  |  |  | no binding | no binding | no binding
7 | B7 | binds | no binding | no binding | no binding | binds |  |  | 
8 | B8 |  |  |  |  |  | no binding | no binding | no binding
9 | B9 | binds | no binding | no binding | no binding | binds |  |  | 
10 | B10 |  |  |  |  |  | no binding | no binding | no binding
